# Data taken from patent publication US9428586B2, “Heparanase splice variant” (COMPUGEN LTD, priority 2010, dated 2016).
# T1: heparanase (Homo sapiens, UniProt Q9Y251)
# T1 construct: the 8 kDa portion and the 50 kDa portion form a heterodimer, which is enzymatically active
# T1 sequence (Q9Y251 36-109 limits assumed): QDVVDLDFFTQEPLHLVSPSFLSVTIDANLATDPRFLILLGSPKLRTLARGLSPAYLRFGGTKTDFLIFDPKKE
# T1 sequence (Q9Y251 158-543 limits assumed): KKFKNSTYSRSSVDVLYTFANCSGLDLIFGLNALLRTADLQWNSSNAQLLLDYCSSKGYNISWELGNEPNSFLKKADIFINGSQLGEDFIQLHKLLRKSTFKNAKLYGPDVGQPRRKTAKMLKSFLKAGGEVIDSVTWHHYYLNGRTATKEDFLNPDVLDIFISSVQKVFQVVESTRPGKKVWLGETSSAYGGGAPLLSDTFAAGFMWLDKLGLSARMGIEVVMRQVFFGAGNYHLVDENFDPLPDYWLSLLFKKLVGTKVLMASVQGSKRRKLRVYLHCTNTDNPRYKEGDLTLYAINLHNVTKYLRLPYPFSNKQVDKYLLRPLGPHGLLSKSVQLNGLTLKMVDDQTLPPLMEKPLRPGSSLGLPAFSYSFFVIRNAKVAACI
# B1: heparanase: full length wild type human heparanase, endo-β-D-glucuronidase (protein)
# chain: QDVVDLDFFTQEPLHLVSPSFLSVTIDANLATDPRFLILLGSPKLRTLARGLSPAYLRFGGTKTDFLIFDPKKESTFEERSYWQSQVNQDICKYGSIPPDVEEKLRLEWPYQEQLLLREHYQKKFKNSTYSRSSVDVLYTFANCSGLDLIFGLNALLRTADLQWNSSNAQLLLDYCSSKGYNISWELGNEPNSFLKKADIFINGSQLGEDFIQLHKLLRKSTFKNAKLYGPDVGQPRRKTAKMLKSFLKAGGEVIDSVTWHHYYLNGRTATKEDFLNPDVLDIFISSVQKVFQVVESTRPGKKVWLGETSSAYGGGAPLLSDTFAAGFMWLDKLGLSARMGIEVVMRQVFFGAGNYHLVDENFDPLPDYWLSLLFKKLVGTKVLMASVQGSKRRKLRVYLHCTNTDNPRYKEGDLTLYAINLHNVTKYLRLPYPFSNKQVDKYLLRPLGPHGLLSKSVQLNGLTLKMVDDQTLPPLMEKPLRPGSSLGLPAFSYSFFVIRNAKVAACI
# Tests used:
# heparanase = target: T1, heparanase; assay: Inhibition of purified active heparanase by peptides (35S-labeled ECM degradation); assay type: biochemical; details: peptide 50 μg/ml; purified active heparanase 40 ng
# Description: (§1) FIG. 7. […] A. Cell lysates. […] B,C. Peptide analysis. […] C. Enzymatic activity.
# (§2) Preparation of cell lysates, protein blotting, and measurement of heparanase enzymatic activity were carried out as described previously (Zetser, A., et al., 2006, Cancer Res 66, 1455-1463; Fux, L., et al., 2009, Cancer Res 69, 1758-1767).
# Binding to heparin beads = details: gel electrophoresis prior to or following incubation with heparin beads
# Excerpt: as §1
# Src [1] = assay: Src phosphorylation (immunoblot, densitometry) in CAG myeloma cells; assay type: cell-based, human; details: serum-free
# Description: (§3) FIG. 3. T5 augments Src phosphorylation. A. Over expression. CAG myeloma (left) and 293 (right) cells infected with heparanase (Hepa), T5, or control empty vector (Vo) were grown in the absence (−) or presence (+) of heparin (50 μg/ml) under serum-free conditions. Total cell lysates were subjected to immunoblotting applying anti-heparanase 1453 (upper and second panels), anti-phospho-Src (p-Src, third panels), anti-Src (fourth panels) anti-phospho-Erk (p-Erk, fifth panels), and anti-Erk2 (sixth panels) antibodies. Src phosphorylation index was calculated by densitometry analysis of phosphorylated Src levels divided by the total Src values. Data is presented as average fold increase ±SE of Src phosphorylation compared with control, Vo cells, set arbitrary to a value of 1 (lower panels) of five independent experiments. B. Gene silencing. Parental 293 cells were transfected with anti-heparanase, anti-T5, or control siRNAs. Total RNA was extracted and RT-PCR analysis was performed applying T5 (upper panel), heparanase (Hepa, second panel) and GAPDH (third panel) specific primers. Corresponding cell lysates were subjected to immunoblotting applying phospho-Src (p-Src, fourth panel), Src (fifth panel), phospho-Erk (p-Erk, sixth panel) and Erk2 (seventh panel) antibodies. Src phosphorylation index was calculated as above and is shown graphically in the lower panel. Note decreased Src phosphorylation levels upon T5 down regulation.
# as §2
# 293 cells = assay: T5 and heparanase levels in cell conditioned medium with heparin (immunoblot); assay type: cell-based, human; details: heparin 50 μg/ml, 20 h, serum-free
# Excerpt: as §1
# T5 = T5 protein bands in T5-transfected 293 cells treated with tunicamycin or chloroquine (immunoblot); assay type: cell-based, human; details: tunicamycin 10, 20 μg/ml
# Excerpt: FIG. 2. Cloning and expression of T5. A. RT-PCR analysis. Total RNA was extracted from the indicated cell line and subjected to RT-PCR analysis applying T5 (upper panel), heparanase (second panel) and GAPDH (third panel) specific primers, specified in the ‘Materials and Methods’ section. B. T5 transfection. […] Control cells were transfected with an empty vector (Vo). Cell lysates (left) and cell conditioned medium (right) were blotted with anti-heparanase 1453 antibody. C. Cellular localization. Stably transfected 293 cells were triple stained for Myc-tag (T5; middle, red), the ER marker calnexin (ER, left, green), and merged with cell nuclei labeled with TO-PRO (right, blue). Cells were similarly stained with anti-Myc-tag (T5; middle, red), the Golgi marker wheat germ agglutinin-FITC (Golgi, left, green) and merged with cell nuclei labeled with TO-PRO (right, blue). […] D. Enzymatic activity. 293 cells transfected with heparanase (Hepa), T5 or control empty vector (Vo) were subjected to three freeze-thaw cycles and applied onto culture dishes coated with ^35S-labelled ECM. Release of sulfate-labeled material eluted in fractions 15-30 was evaluated as measure of heparanase activity, as described in ‘Materials and Methods’. […]
# Src [2] = assay: Src phosphorylation (immunoblot, densitometry) in 293 cells; assay type: cell-based, human; details: over expressing 293 cells, serum-free
# Description: as §3, with “(-)” for “(−)”, “Data is presented as average fold increase ±SE of Src phosphorylation compared with control, Vo cells, set arbitrary to a value of 1 (lower panels) of five independent experiments.” left out, “regulation. […]” for “regulation.”
# Erk = Erk phosphorylation (immunoblot) in CAG myeloma and 293 cells; assay type: cell-based, human
# Description: as §3, with “Note decreased Src phosphorylation levels upon T5 down regulation.” left out
# CAG myeloma cells [3] = assay: Cell proliferation by BrdU incorporation, CAG myeloma cells; assay type: cell-based, human; details: infected CAG cells, serum-free 20 h, BrdU 2 h; control Vo 24±3%
# Description: (§4) FIG. 4. T5 augments cell proliferation. A. BrdU incorporation. Morphology of control (Con), heparanase (Hepa)- and T5-infected CAG myeloma cell cultures is shown in the upper panels. […] Sub-confluent cultures of control (Vo), heparanase (Hepa)- and T5-infected CAG cells were grown in serum-free medium for 20 h followed by incubation with BrdU (1:1000) for 2 h. Cells were then fixed and immunostained with anti BrdU monoclonal antibody. Positively stained, red-brown nuclei were counted vs. blue, hematoxilin counter-stained nuclei. At least 1000 cells were counted for each cell type and the percentage of positively stained cells is noted in each panel. Fold increase in BrdU incorporation is shown graphically on the right panel. Gene silencing. 293 cells were transfected with anti-GFP (si-GFP), anti-heparanase (si-Hepa) or anti-T5 siRNA oligonucleotides and BrdU incorporation was evaluated as above except that cells were kept in serum-containing medium (lower panels). Note 2-fold decrease in BrdU incorporation following heparanase or T5 gene silencing (lower right panel). B. Colony formation in soft agar. […]
# Cell proliferation was analyzed by BrdU incorporation using cell proliferation labeling reagent (1:1000, GE Healthcare), as described in Zetser, A., et al (2003 Cancer Res 63, 7733-7741). At least 1000 cells were counted for each cell type.
# [4] = test system: CAG myeloma, FaDu pharynx carcinoma and 293 cells; assay: Colony formation in soft agar; assay type: cell-based, human; details: over expression in CAG myeloma, FaDu and 293 cells
# Description: as §4
# Three ml of DMEM containing 0.5% low melt agarose (Bio-Rad, Hercules, Calif.) and 10% fetal calf serum was poured into 60 mm petri dishes. […] Colonies were visualized and counted under a microscope after 2-5 weeks, as described.
# CAG myeloma cells [5] = assay: CAG myeloma tumor xenograft development and immunohistochemistry; assay type: in vivo, athymic nude mice
# Description: FIG. 5. T5 enhances tumor xenograft development. Control (Vo), heparanase-, and T5-infected CAG myeloma cells were injected subcutaneously (1×10^6/0.1 ml) and tumor volume was calculated (A). At the end of the experiment on day 37, tumors were resected, photographed (A, inset) and weighted (B). C. Immunohistochemical analysis. Paraffin-embedded 5 micron sections were stained with hematoxilin & eosin (left column), anti-CD31 (second left column), and anti-smooth muscle actin (SMA, two right columns) antibodies. Note increased blood vessels density and maturation (recruitment of SMA-positive cells) in xenografts produced by heparanase- and T5-infected cells. Cells from exponential cultures of control-, heparanase-, and T5-infected CAG myeloma cells were detached with trypsin/EDTA, washed with PBS and brought to a concentration of 1×10^7 cells/ml. Cell suspension (1×10 6/0.1 ml) was inoculated subcutaneously at the right flank of 5-weeks old female athymic nude mice (n=7). Xenograft size was determined twice a week by externally measuring tumors in two dimensions using a caliper. At the end of the experiment, mice were sacrificed and xenografts were removed, weighted and fixed in formalin. Paraffin-embedded 5 micron sections were subjected to immunostaining with anti-PECAM-1 (CD31) or anti-smooth muscle actin (1A4, Sigma) antibodies, using the Envision kit, according to the manufacturer's (Dako, Glostrup, Denmark) instructions, as described (Fux, L., et al., 2009, Cancer Res 69, 1758-1767). All animal experiments were approved by the Animal Care Committee of the Technion, Haifa, Israel.
# [6] = CAG xenografts, immunohistochemistry
molecule,measurement,setting,value
CKKFKNSTYSSKK [CKKK],inhibition of heparanase enzymatic activity,heparanase,failed to interact with heparin or to inhibit heparanase enzymatic activity
same,interaction of peptide with heparin,Binding to heparin beads,failed to interact with heparin
heparin,effect of heparin on Src phosphorylation enhanced by heparanase or T5,"Src [1]; heparin 50 μg/ml, CAG myeloma and 293 cells",not affected
same,T5 levels in the cell culture medium upon addition of heparin,293 cells,not affected
same,heparanase levels in the cell culture medium upon addition of heparin,293 cells,markedly increased
tunicamycin,amount of the ˜17 kDa T5 band,T5,markedly reduced
B1,Src phosphorylation increase vs control Vo cells,Src [1]; infected CAG myeloma cells,~3 fold
same,Src phosphorylation enhancement vs control Vo cells,Src [2],~4 fold
same,Erk phosphorylation upon over expression,Erk,not affected
same,BrdU incorporation (positively stained cells),CAG myeloma cells [3],49±6%
same,"colony number, size and cell density in soft agar",[4],markedly increased
same,micro vessel density (CD31),CAG myeloma cells [5]; [6],two-fold increase in vessel density
same,pericytes associated with blood vessels (smooth muscle actin),CAG myeloma cells [5]; [6],significantly increased number of pericytes
same,average weight of xenografts,"CAG myeloma cells [5]; day 37, subcutaneous infected CAG cells, control 58±11 mg",648 ± 69 mg
same,development of tumor xenografts after day 21 vs control cells,CAG myeloma cells [5]; subcutaneous infected CAG cells,markedly enhanced
